Experimental data: patent publication US20120172293A1 (Takeda / Millennium, published 2012)
Non-standard residues stand in square brackets, D forms with d. *: point of attachment. βHOAla = beta-homoalanine (β-HOAla), D- or L-form; 4Pal = N[C@@H](Cc1ccncc1)C(=O)O; d(pGlu) = O=C1CC[C@H](C(=O)O)N1; Cha = N[C@@H](CC1CCCCC1)C(=O)O; Isonicotinoyl = O=C(c1ccncc1)*; Aipe = 3-aminobutanoic acid; dIva = CC[C@@](C)(N)C(=O)O; Iva = CC[C@](C)(N)C(=O)O; Nle = CCCC[C@H](N)C(=O)O; Aib = CC(C)(N)C(=O)O

What was measured:
[1] = target: human Y2 receptor (human) (UniProt P49146); assay: cell-based or functional assay
[2] = target: human Y2 receptor (human) (UniProt P49146); assay: RBA: displacement of [125I]-PYY from hY2R/CHO membranes

Sequence of human Y2 receptor (human) (P49146 whole entry): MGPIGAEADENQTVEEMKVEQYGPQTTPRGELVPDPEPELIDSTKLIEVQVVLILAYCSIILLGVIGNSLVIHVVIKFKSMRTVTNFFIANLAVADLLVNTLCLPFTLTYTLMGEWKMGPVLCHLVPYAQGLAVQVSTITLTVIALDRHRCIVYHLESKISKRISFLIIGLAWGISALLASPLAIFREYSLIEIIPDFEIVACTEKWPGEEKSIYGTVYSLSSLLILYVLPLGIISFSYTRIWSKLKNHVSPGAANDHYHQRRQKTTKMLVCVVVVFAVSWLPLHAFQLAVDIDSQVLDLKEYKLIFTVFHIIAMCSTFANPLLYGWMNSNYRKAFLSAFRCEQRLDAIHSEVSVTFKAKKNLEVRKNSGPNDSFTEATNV

Binder | GBA EC50 Ratio ([35S]GTPγS binding) (EC50 compound/EC50 PYY(3-36)) [1] | IC50 Ratio (IC50 compound/IC50 PYY(3-36)) [2]
Isonicotinoyl-E[dP][Nle][4Pal][Cha][Aib]NK[Aib]TRQR[Cha]-NH2 (SMILES CCCC[C@H](NC(=O)[C@H]1CCCN1C(=O)[C@H](CCC(=O)O)NC(=O)c1ccncc1)C(=O)N[C@@H](Cc1ccncc1)C(=O)N[C@@H](CC1CCCCC1)C(=O)NC(C)(C)C(=O)N[C@@H](CC(N)=O)C(=O)N[C@@H](CCCCN)C(=O)NC(C)(C)C(=O)N[C@H](C(=O)N[C@@H](CCCNC(=N)N)C(=O)N[C@@H](CCC(N)=O)C(=O)N[C@@H](CCCNC(=N)N)C(=O)N[C@@H](CC1CCCCC1)C(N)=O)[C@@H](C)O) [4-Pyridinecarbonyl-[Glu23, D-Pro24, Nle25, Pya(4)26, Cha27,36, Aib28,31, Lys30]-PYY(23-36)] | 5.7 | 8.1
Ac-S[dP][Aib][4Pal][Cha][Aib]NK[Aib]TRQR[Cha]-NH2 (SMILES CC(=O)N[C@@H](CO)C(=O)N1CCC[C@@H]1C(=O)NC(C)(C)C(=O)N[C@@H](Cc1ccncc1)C(=O)N[C@@H](CC1CCCCC1)C(=O)NC(C)(C)C(=O)N[C@@H](CC(N)=O)C(=O)N[C@@H](CCCCN)C(=O)NC(C)(C)C(=O)N[C@H](C(=O)N[C@@H](CCCNC(=N)N)C(=O)N[C@@H](CCC(N)=O)C(=O)N[C@@H](CCCNC(=N)N)C(=O)N[C@@H](CC1CCCCC1)C(N)=O)[C@@H](C)O) [Ac-[D-Pro24, Aib25,28,31, Pya(4)26, Cha27,36, Lys30]-PYY(23-36)] | 1.7 | 8.4
Ac-S[dP][Iva][4Pal][Cha][Aib]NK[Aib]TRQR[Cha]-NH2 (SMILES CC[C@](C)(NC(=O)[C@H]1CCCN1C(=O)[C@H](CO)NC(C)=O)C(=O)N[C@@H](Cc1ccncc1)C(=O)N[C@@H](CC1CCCCC1)C(=O)NC(C)(C)C(=O)N[C@@H](CC(N)=O)C(=O)N[C@@H](CCCCN)C(=O)NC(C)(C)C(=O)N[C@H](C(=O)N[C@@H](CCCNC(=N)N)C(=O)N[C@@H](CCC(N)=O)C(=O)N[C@@H](CCCNC(=N)N)C(=O)N[C@@H](CC1CCCCC1)C(N)=O)[C@@H](C)O) [Ac-[D-Pro24, Iva25, Pya(4)26, Cha27,36, Aib28,31, Lys30]-PYY(23-36)] | 2.9 | 2.9
Ac-S[dP][Aib]H[Cha][Aib]NK[Aib]TRQR[Cha]-NH2 (SMILES CC(=O)N[C@@H](CO)C(=O)N1CCC[C@@H]1C(=O)NC(C)(C)C(=O)N[C@@H](Cc1c[nH]cn1)C(=O)N[C@@H](CC1CCCCC1)C(=O)NC(C)(C)C(=O)N[C@@H](CC(N)=O)C(=O)N[C@@H](CCCCN)C(=O)NC(C)(C)C(=O)N[C@H](C(=O)N[C@@H](CCCNC(=N)N)C(=O)N[C@@H](CCC(N)=O)C(=O)N[C@@H](CCCNC(=N)N)C(=O)N[C@@H](CC1CCCCC1)C(N)=O)[C@@H](C)O) [Ac-[D-Pro24, Aib25,28,31, Cha27,36, Lys30]-PYY(23-36)] | 11 | 24
Ac-S[dP][Iva]H[Cha][Aib]NK[Aib]TRQR[Cha]-NH2 (SMILES CC[C@](C)(NC(=O)[C@H]1CCCN1C(=O)[C@H](CO)NC(C)=O)C(=O)N[C@@H](Cc1c[nH]cn1)C(=O)N[C@@H](CC1CCCCC1)C(=O)NC(C)(C)C(=O)N[C@@H](CC(N)=O)C(=O)N[C@@H](CCCCN)C(=O)NC(C)(C)C(=O)N[C@H](C(=O)N[C@@H](CCCNC(=N)N)C(=O)N[C@@H](CCC(N)=O)C(=O)N[C@@H](CCCNC(=N)N)C(=O)N[C@@H](CC1CCCCC1)C(N)=O)[C@@H](C)O) [Ac-[D-Pro24, Iva25, Cha27,36, Aib28,31, Lys30]-PYY(23-36)] | 5.2 | 8.8
Ac-S[Aib]R[4Pal][Cha][Aib]NK[Aib]TRQR[Cha]-NH2 (SMILES CC(=O)N[C@@H](CO)C(=O)NC(C)(C)C(=O)N[C@@H](CCCNC(=N)N)C(=O)N[C@@H](Cc1ccncc1)C(=O)N[C@@H](CC1CCCCC1)C(=O)NC(C)(C)C(=O)N[C@@H](CC(N)=O)C(=O)N[C@@H](CCCCN)C(=O)NC(C)(C)C(=O)N[C@H](C(=O)N[C@@H](CCCNC(=N)N)C(=O)N[C@@H](CCC(N)=O)C(=O)N[C@@H](CCCNC(=N)N)C(=O)N[C@@H](CC1CCCCC1)C(N)=O)[C@@H](C)O) [Ac-[Aib24,28,31, Pya(4)26, Cha27,36, Lys30]-PYY(23-36)] | 1.1 | 0.81
Ac-S[Iva]R[4Pal][Cha][Aib]NK[Aib]TRQR[Cha]-NH2 (SMILES CC[C@](C)(NC(=O)[C@H](CO)NC(C)=O)C(=O)N[C@@H](CCCNC(=N)N)C(=O)N[C@@H](Cc1ccncc1)C(=O)N[C@@H](CC1CCCCC1)C(=O)NC(C)(C)C(=O)N[C@@H](CC(N)=O)C(=O)N[C@@H](CCCCN)C(=O)NC(C)(C)C(=O)N[C@H](C(=O)N[C@@H](CCCNC(=N)N)C(=O)N[C@@H](CCC(N)=O)C(=O)N[C@@H](CCCNC(=N)N)C(=O)N[C@@H](CC1CCCCC1)C(N)=O)[C@@H](C)O) [Ac-[Iva24, Pya(4)26, Cha27,36, Aib28,31, Lys30]-PYY(23-36)] | 0.91 | 0.58
Ac-S[dIva]R[4Pal][Cha][Aib]NK[Aib]TRQR[Cha]-NH2 (SMILES CC[C@@](C)(NC(=O)[C@H](CO)NC(C)=O)C(=O)N[C@@H](CCCNC(=N)N)C(=O)N[C@@H](Cc1ccncc1)C(=O)N[C@@H](CC1CCCCC1)C(=O)NC(C)(C)C(=O)N[C@@H](CC(N)=O)C(=O)N[C@@H](CCCCN)C(=O)NC(C)(C)C(=O)N[C@H](C(=O)N[C@@H](CCCNC(=N)N)C(=O)N[C@@H](CCC(N)=O)C(=O)N[C@@H](CCCNC(=N)N)C(=O)N[C@@H](CC1CCCCC1)C(N)=O)[C@@H](C)O) [Ac-[D-Iva24, Pya(4)26, Cha27,36, Aib28,31, Lys30]-PYY(23-36)] | 1.3 | 0.39
Ac-S[Aipe]R[4Pal][Cha][Aib]NK[Aib]TRQR[Cha]-NH2 [Ac-[Aipe24, Pya(4)26, Cha27,36, Aib28,31, Lys30]-PYY(23-36)] | 2 | 1.3
Ac-S[βHOAla]R[4Pal][Cha][Aib]NK[Aib]TRQR[Cha]-NH2 (also: former peak isomer, β-HOAla configuration D or L not assigned) [Ac-[β-HOAla24, Pya(4)26, Cha27,36, Aib28,31, Lys30]-PYY(23-36) former peak] | 2.8 | 2.4
Ac-S[βHOAla]R[4Pal][Cha][Aib]NK[Aib]TRQR[Cha]-NH2 (also: later peak isomer, β-HOAla configuration D or L not assigned) [Ac-[β-HOAla24, Pya(4)26, Cha27,36, Aib28,31, Lys30]-PYY(23-36) later peak] | 1.9 | 0.85
[d(pGlu)]R[4Pal][Cha][Aib]NK[Aib]TRQR[Cha]-NH2 (SMILES C[C@@H](O)[C@H](NC(=O)C(C)(C)NC(=O)[C@H](CCCCN)NC(=O)[C@H](CC(N)=O)NC(=O)C(C)(C)NC(=O)[C@H](CC1CCCCC1)NC(=O)[C@H](Cc1ccncc1)NC(=O)[C@H](CCCNC(=N)N)NC(=O)[C@H]1CCC(=O)N1)C(=O)N[C@@H](CCCNC(=N)N)C(=O)N[C@@H](CCC(N)=O)C(=O)N[C@@H](CCCNC(=N)N)C(=O)N[C@@H](CC1CCCCC1)C(N)=O) [[D-pGlu24, Pya(4)26, Cha27,36, Aib28,31, Lys30]-PYY(24-36)] | 1.1 | 2
